Assay results: IntAct's records for PubMed 25910212

B1: Retinol dehydrogenase 12 (Homo sapiens), Q96NR8 (parent)
chain: MLVTLGLLTSFFSFLYMVAPSIRKFFAGGVCRTNVQLPGKVVVITGANTGIGKETARELASRGARVYIACRDVLKGESAASEIRVDTKNSQVLVRKLDLSDTKSIRAFAEGFLAEEKQLHILINNAGVMMCPYSKTADGFETHLGVNHLGHFLLTYLLLERLKVSAPARVVNVSSVAHHIGKIPFHDLQSEKRYSRGFAYCHSKLANVLFTRELAKRLQGTGVTTYAVHPGVVRSELVRHSSLLCLLWRLFSPFVKTAREGAQTSLHCALAEGLEPLSGKYFSDCKRTWVSPRARNNKTAERLWNVSCELLGIRWE
B2: Emerin (Homo sapiens), P50402 (parent)
chain: MDNYADLSDTELTTLLRRYNIPHGPVVGSTRRLYEKKIFEYETQRRRLSPPSSSAASSYSFSDLNSTRGDADMYDLPKKEDALLYQSKGYNDDYYEESYFTTRTYGEPESAGPSRAVRQSVTSFPDADAFHHQVHDDDLLSSSEEECKDRERPMYGRDSAYQSITHYRPVSASRSSLDLSYYPTSSSTSFMSSSSSSSSWLTRRAIRPENRAPGAGLGQDRQVPLWGQLLLFLVFVIVLFFIYHFMQAEEGNPF

Variants of: B1
Conditions: with RBPMS

Variant | effect of a mutation on the interaction
MLVTLGLLTSFFSFLYMVAPSIRKFFAGGVCRTNVQLPGKVVVITGANTGIGKETARELASRGARVYIACRDVLKGESAASEIRVDTKNSQVLVRKLDLSDTKSIRAFAEGFLAEEKQLHILINNAGVMMCPYSKTADGFETHLGVNHLGHFLLTYLLLERLKVSAPARVVNVSSVAHHIGKIPFHDLQSEKRYSRGFAYCHSKLANVLFTRELAKRLQGTGVTTYAVHAGVVRSELVRHSSLLCLLWRLFSPFVKTAREGAQTSLHCALAEGLEPLSGKYFSDCKRTWVSPRARNNKTAERLWNVSCELLGIRWE [P230A] | with no effect
MLVTLGLLTSFFSFLYMVAPSIRKFFAGGVCRTNVQLPGKVVVITGANTGIGKETARELASRGARVYIACRDVLKGESAASEIRVDTKNSQVLVRKLDLSDTKSIRAFAEGFLAEEKQLHILINNAGVMMCPYSKTADGFETHLGVNHLGHFLLTYLLLERLKVSAPARVVNVSSVAHHIGKIPFHDLQSEKRYSRGFAYCHSKLANVLFTRELAKRLQGTGVTTYAVHPGVVRSELVRHSSLLCLLWRLFSPFVKTAREGAQTSLHCALAEGLEPLSGKYFSDYKRTWVSPRARNNKTAERLWNVSCELLGIRWE [C285Y] | with no effect
MLVTLGLLTSFFSFLYMVAPSIRKFFAGGVCRTNVQLPGKVVVITGANTGIGKETARELASRGARVYIACRDVLKGESAASEIRVDTKNSQVLVRKLDISDTKSIRAFAEGFLAEEKQLHILINNAGVMMCPYSKTADGFETHLGVNHLGHFLLTYLLLERLKVSAPARVVNVSSVAHHIGKIPFHDLQSEKRYSRGFAYCHSKLANVLFTRELAKRLQGTGVTTYAVHPGVVRSELVRHSSLLCLLWRLFSPFVKTAREGAQTSLHCALAEGLEPLSGKYFSDCKRTWVSPRARNNKTAERLWNVSCELLGIRWE [L99I] | with no effect

Variants of: B2
Conditions: with vapb_human VAPB

Variant | effect of a mutation on the interaction
MDNYADLSDTELTTLLRRYNIPHGPVVGSTRRLYEKKIFEYETQRRRLSPPSSFAASSYSFSDLNSTRGDADMYDLPKKEDALLYQSKGYNDDYYEESYFTTRTYGEPESAGPSRAVRQSVTSFPDADAFHHQVHDDDLLSSSEEECKDRERPMYGRDSAYQSITHYRPVSASRSSLDLSYYPTSSSTSFMSSSSSSSSWLTRRAIRPENRAPGAGLGQDRQVPLWGQLLLFLVFVIVLFFIYHFMQAEEGNPF [S54F] | with no effect
MDNYADLSDTELTTLLRRYNIPHGPVVGSTRRLYEKKIFEYETQRRRLSPPSSSAASSYSFSDLNSTRGDAVMYDLPKKEDALLYQSKGYNDDYYEESYFTTRTYGEPESAGPSRAVRQSVTSFPDADAFHHQVHDDDLLSSSEEECKDRERPMYGRDSAYQSITHYRPVSASRSSLDLSYYPTSSSTSFMSSSSSSSSWLTRRAIRPENRAPGAGLGQDRQVPLWGQLLLFLVFVIVLFFIYHFMQAEEGNPF [D72V] | with no effect

Variants of: B2
Conditions: with tri42_human TRIM42, Q8IWZ5
Chain of tri42_human TRIM42, Q8IWZ5 (Q8IWZ5 whole entry): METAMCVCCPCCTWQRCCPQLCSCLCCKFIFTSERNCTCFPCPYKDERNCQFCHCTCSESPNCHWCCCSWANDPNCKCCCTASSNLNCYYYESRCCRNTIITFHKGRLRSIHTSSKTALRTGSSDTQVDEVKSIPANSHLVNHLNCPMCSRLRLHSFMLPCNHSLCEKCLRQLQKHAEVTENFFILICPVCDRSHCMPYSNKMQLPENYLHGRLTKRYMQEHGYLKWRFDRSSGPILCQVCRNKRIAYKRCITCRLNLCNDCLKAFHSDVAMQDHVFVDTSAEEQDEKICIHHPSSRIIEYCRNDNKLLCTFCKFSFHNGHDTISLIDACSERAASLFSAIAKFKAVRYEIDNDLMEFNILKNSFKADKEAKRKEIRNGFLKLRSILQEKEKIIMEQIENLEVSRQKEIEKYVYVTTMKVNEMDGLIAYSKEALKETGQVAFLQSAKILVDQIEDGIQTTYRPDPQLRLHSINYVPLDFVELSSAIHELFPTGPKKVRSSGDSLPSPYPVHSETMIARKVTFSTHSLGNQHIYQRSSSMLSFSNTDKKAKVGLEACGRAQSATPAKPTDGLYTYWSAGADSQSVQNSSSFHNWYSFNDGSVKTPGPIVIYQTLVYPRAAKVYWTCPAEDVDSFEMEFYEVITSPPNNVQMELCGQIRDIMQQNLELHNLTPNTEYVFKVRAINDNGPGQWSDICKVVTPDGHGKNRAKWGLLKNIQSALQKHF

Variant | effect of a mutation on the interaction
MDNYADLSDTELTTLLRRYNIPHGPVVGSTRRLYEKKIFEYETQRRRLSPPSSFAASSYSFSDLNSTRGDADMYDLPKKEDALLYQSKGYNDDYYEESYFTTRTYGEPESAGPSRAVRQSVTSFPDADAFHHQVHDDDLLSSSEEECKDRERPMYGRDSAYQSITHYRPVSASRSSLDLSYYPTSSSTSFMSSSSSSSSWLTRRAIRPENRAPGAGLGQDRQVPLWGQLLLFLVFVIVLFFIYHFMQAEEGNPF [S54F] | with no effect
MDNYADLSDTELTTLLRRYNIPHGPVVGSTRRLYEKKIFEYETQRRRLSPPSSSAASSYSFSDLNSTRGDAVMYDLPKKEDALLYQSKGYNDDYYEESYFTTRTYGEPESAGPSRAVRQSVTSFPDADAFHHQVHDDDLLSSSEEECKDRERPMYGRDSAYQSITHYRPVSASRSSLDLSYYPTSSSTSFMSSSSSSSSWLTRRAIRPENRAPGAGLGQDRQVPLWGQLLLFLVFVIVLFFIYHFMQAEEGNPF [D72V] | with no effect

Variants of: B2
Conditions: with stx4_human STX4, Q12846
Chain of stx4_human STX4, Q12846 (Q12846 whole entry): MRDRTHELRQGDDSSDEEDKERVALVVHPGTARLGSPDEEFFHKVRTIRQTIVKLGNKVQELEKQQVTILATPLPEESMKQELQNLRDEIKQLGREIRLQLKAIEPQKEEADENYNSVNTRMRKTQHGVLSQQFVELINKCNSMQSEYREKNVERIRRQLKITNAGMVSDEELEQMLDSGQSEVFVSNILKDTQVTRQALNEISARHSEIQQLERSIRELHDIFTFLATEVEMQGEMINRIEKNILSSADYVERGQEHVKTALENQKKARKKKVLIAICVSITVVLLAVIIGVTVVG

Variant | effect of a mutation on the interaction
MDNYADLSDTELTTLLRRYNIPHGPVVGSTRRLYEKKIFEYETQRRRLSPPSSFAASSYSFSDLNSTRGDADMYDLPKKEDALLYQSKGYNDDYYEESYFTTRTYGEPESAGPSRAVRQSVTSFPDADAFHHQVHDDDLLSSSEEECKDRERPMYGRDSAYQSITHYRPVSASRSSLDLSYYPTSSSTSFMSSSSSSSSWLTRRAIRPENRAPGAGLGQDRQVPLWGQLLLFLVFVIVLFFIYHFMQAEEGNPF [S54F] | with no effect
MDNYADLSDTELTTLLRRYNIPHGPVVGSTRRLYEKKIFEYETQRRRLSPPSSSAASSYSFSDLNSTRGDAVMYDLPKKEDALLYQSKGYNDDYYEESYFTTRTYGEPESAGPSRAVRQSVTSFPDADAFHHQVHDDDLLSSSEEECKDRERPMYGRDSAYQSITHYRPVSASRSSLDLSYYPTSSSTSFMSSSSSSSSWLTRRAIRPENRAPGAGLGQDRQVPLWGQLLLFLVFVIVLFFIYHFMQAEEGNPF [D72V] | with no effect

Variants of: B2
Conditions: with meox2_human MEOX2, P50222
Chain of meox2_human MEOX2, P50222 (P50222 whole entry): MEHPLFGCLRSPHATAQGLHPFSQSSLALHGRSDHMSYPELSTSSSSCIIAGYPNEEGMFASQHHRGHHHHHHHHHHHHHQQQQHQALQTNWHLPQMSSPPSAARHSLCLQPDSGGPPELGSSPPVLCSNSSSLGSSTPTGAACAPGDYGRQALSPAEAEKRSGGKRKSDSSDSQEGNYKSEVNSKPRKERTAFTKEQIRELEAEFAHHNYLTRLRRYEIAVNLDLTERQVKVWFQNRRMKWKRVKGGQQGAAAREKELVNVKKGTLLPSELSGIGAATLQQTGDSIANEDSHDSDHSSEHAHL

Variant | effect of a mutation on the interaction
MDNYADLSDTELTTLLRRYNIPHGPVVGSTRRLYEKKIFEYETQRRRLSPPSSFAASSYSFSDLNSTRGDADMYDLPKKEDALLYQSKGYNDDYYEESYFTTRTYGEPESAGPSRAVRQSVTSFPDADAFHHQVHDDDLLSSSEEECKDRERPMYGRDSAYQSITHYRPVSASRSSLDLSYYPTSSSTSFMSSSSSSSSWLTRRAIRPENRAPGAGLGQDRQVPLWGQLLLFLVFVIVLFFIYHFMQAEEGNPF [S54F] | with no effect
MDNYADLSDTELTTLLRRYNIPHGPVVGSTRRLYEKKIFEYETQRRRLSPPSSSAASSYSFSDLNSTRGDAVMYDLPKKEDALLYQSKGYNDDYYEESYFTTRTYGEPESAGPSRAVRQSVTSFPDADAFHHQVHDDDLLSSSEEECKDRERPMYGRDSAYQSITHYRPVSASRSSLDLSYYPTSSSTSFMSSSSSSSSWLTRRAIRPENRAPGAGLGQDRQVPLWGQLLLFLVFVIVLFFIYHFMQAEEGNPF [D72V] | with no effect

Variants of: B2
Conditions: with ccd33_human CCDC33, Q8N5R6
Chain of ccd33_human CCDC33, Q8N5R6 (Q8N5R6 whole entry): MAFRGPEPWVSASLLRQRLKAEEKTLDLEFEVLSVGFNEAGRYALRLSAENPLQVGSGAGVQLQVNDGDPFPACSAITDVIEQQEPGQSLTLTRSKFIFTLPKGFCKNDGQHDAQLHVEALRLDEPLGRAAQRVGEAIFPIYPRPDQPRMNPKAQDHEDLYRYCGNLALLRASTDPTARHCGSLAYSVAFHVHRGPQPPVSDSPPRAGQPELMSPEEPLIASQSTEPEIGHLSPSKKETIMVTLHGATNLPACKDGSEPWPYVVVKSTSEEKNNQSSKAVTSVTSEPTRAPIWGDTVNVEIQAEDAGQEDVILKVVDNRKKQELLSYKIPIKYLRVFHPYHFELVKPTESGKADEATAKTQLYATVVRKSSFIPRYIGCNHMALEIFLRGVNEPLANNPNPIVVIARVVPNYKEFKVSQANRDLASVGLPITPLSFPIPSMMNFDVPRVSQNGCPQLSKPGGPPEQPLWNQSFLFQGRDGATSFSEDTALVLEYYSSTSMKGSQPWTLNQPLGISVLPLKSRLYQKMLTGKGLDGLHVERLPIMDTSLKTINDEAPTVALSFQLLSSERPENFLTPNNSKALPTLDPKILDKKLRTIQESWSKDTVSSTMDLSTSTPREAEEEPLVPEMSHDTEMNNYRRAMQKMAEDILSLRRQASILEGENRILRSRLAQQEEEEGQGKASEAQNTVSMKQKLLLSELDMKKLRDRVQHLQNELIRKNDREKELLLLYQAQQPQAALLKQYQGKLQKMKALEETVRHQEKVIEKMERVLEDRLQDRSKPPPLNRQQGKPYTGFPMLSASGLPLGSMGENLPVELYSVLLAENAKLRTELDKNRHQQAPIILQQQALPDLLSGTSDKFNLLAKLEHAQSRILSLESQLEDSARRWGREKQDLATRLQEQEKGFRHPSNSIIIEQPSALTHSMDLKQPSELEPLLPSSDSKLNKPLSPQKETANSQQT

Variant | effect of a mutation on the interaction
MDNYADLSDTELTTLLRRYNIPHGPVVGSTRRLYEKKIFEYETQRRRLSPPSSFAASSYSFSDLNSTRGDADMYDLPKKEDALLYQSKGYNDDYYEESYFTTRTYGEPESAGPSRAVRQSVTSFPDADAFHHQVHDDDLLSSSEEECKDRERPMYGRDSAYQSITHYRPVSASRSSLDLSYYPTSSSTSFMSSSSSSSSWLTRRAIRPENRAPGAGLGQDRQVPLWGQLLLFLVFVIVLFFIYHFMQAEEGNPF [S54F] | with no effect
MDNYADLSDTELTTLLRRYNIPHGPVVGSTRRLYEKKIFEYETQRRRLSPPSSSAASSYSFSDLNSTRGDAVMYDLPKKEDALLYQSKGYNDDYYEESYFTTRTYGEPESAGPSRAVRQSVTSFPDADAFHHQVHDDDLLSSSEEECKDRERPMYGRDSAYQSITHYRPVSASRSSLDLSYYPTSSSTSFMSSSSSSSSWLTRRAIRPENRAPGAGLGQDRQVPLWGQLLLFLVFVIVLFFIYHFMQAEEGNPF [D72V] | with no effect
